According to the DeepSol protein solubility set:

Assay: soluble on expression in E. coli; label from the status in PepcDB or PDB records

Sequence | soluble on expression in E. coli
MSLQKLVAIEPVSLVLSAEKALYSFADEVVMYSDIPAGDNEIIARIGDADAVLLSYTSQINRYILERCPNVRYIGMCCSLYSPESANVDIRYANERGITVTGIRDYGDEGVIEYVVSELVRCLHGFGQKPWEGIPREITGLKVGIVGLGKSGGMIADAMKFFGADIAYYARSEKKEAGAKGYRFMPLNELLTWSEVVCCCLNKNTVLLHEAEFKALGNRKILFNTGLSPAWDESSFTRWLEEDNLCFCDTLGALGSTALLTHPHVRCMQVSTGRTRQAFDRLSEKVLANLSEYNGEGHHHHHH | soluble
MKKYLNQNVYDALIERLHFLFNDFPIVYISFSGGKDSGLLLNILLDFRDKYYPDREIGVFHQDFEAQYSLTTKYVQETFTSLEGRKKVSLYWVCLPMATRTALSSYEMFWYPWDDKTEDIWVRPMPSQDYVINLENNSITTYRYKMNQEDLAKQFGRWYKQIHGNQKTVCILGNRASESLHRYSGFINKKYGYQKECWITKQFKDVWTASPLYDWSVEDIWHAYYKFSYSYNELYDLFYKAGLKPSQMRVASPFQDYAVDSLNLYRIIDQETWVKLLGRVQGVNFSNIYGRTKAMGYKSIALPKGHSWKSYTQFLLSTLPVRLRNNYVRKFNKSIDFWHKTGGGLAEETINELIEKGYRIARNGISNYTSFKHSRVIFLDQIPDDTDDIVTTKDIPSWKRMCFCILKNDHICRTMGFGLTREQQKIVAFLKEKYKTSLKELESE | not soluble
MRGSHSGAQGLLAAQKARGLFKDFFPETGTKIELPELFDRGTASFPQTIYCGFDPTADSLHVGHLLALLGLFHLQRAGHNVIALVGGATARLGDPSGRTKEREALETERVRANARALRLGLEALAANHQQLFTDGRSWGSFTVLDNSAWYQKQHLVDFLAAVGGHFRMGTLLSRQSVQLRLKSPEGMSLAEFFYQVLQAYDFYYLFQRYGCRVQLGGSDQLGNIMSGYEFINKLTGEDVFGITVPLITSTTGAKLGKSAGNAVWLNRDKTSPFELYQFFVRQPDDSVERYLKLFTFLPLPEIDHIMQLHVKEPERRGPQKRLAAEVTKLVHGREGLDSAKRCTQALYHRSHHHHHH | soluble
MGSDKIHHHHHHAERISFFYPPFGEFSLSVDSLETFAKVGKIDRDFSFYASRATPQQLAQLRDLLQQRFNLTPTLVSQVTYSPIGEQLVQQLGKLLLTESRQNGFYAIRASLILAAADREGLTVVNLLRKFPSNTVRVNFTEGLRIVDDLSQLLKKKDEVVASLQKEAIAQAANSTVDFSKQPDLRSPGKFRWLKKSLELNDISRSRRLPVDIYLPTTQNSEPTDQNSPSPPFPLIVISHGLASDRSTFVYLAEHLASYGFAVAVLEHPGSNAKRFQEYFAGLASPPEPEEFIDRPLDIKYLLDELQRLEKSDPSLHGKLNFQQVGAIGQSFGGYTVLTLAGAKINFEQLRQDCNPNNSSFNLSLLLQCEASKLPQKNYELKDDRIKAIMAINPIDSLVLGEGGVSQIKMPVMLVAGSQDIFAPPVFEQIRPFTWLSDPNKYLALIENATHFSAIAEPTPENDVLPVPPALLGPDRDAVYSYLNALSVAFMETHLLNRPEYRSYLQPSYATFISKEPLNLSILQSLSVAQFNQIWSASIPQSAKLSNPQPTPR | not soluble
PVNTKRSNGTKRVEFPTTKKSMCIGNSTPNEQETFRAKVDEIWFRLTQKTDGTVMRDFLIEKAAEYFKQPEQPKQNAIEVISAIMAPQEEQTKSKADLYKFLAMFGPYETIMLKIASLLLISNNKGHWLTFDPQAEKNANNQRDSISGWFDQNEPNCLILKTPTGIRKIWNKPLIEATGQYLMDENGEKYDSWDKYFEMKPIETYLTAYPTFAPMHHHHHH | soluble
MGSDKIHHHHHHMTAQQGVPIKITNKEIAQEFLDKYDTFLFDCDGVLWLGSQALPYTLEILNLLKQLGKQLIFVTNNSTKSRLAYTKKFASFGIDVKEEQIFTSGYASAVYIRDFLKLQPGKDKVWVFGESGIGEELKLMGYESLGGADSRLDTPFDAAKSPFLVNGLDKDVSCVIAGLDTKVNYHRLAVTLQYLQKDSVHFVGTNVDSTFPQKGYTFPGAGSMIESLAFSSNRRPSYCGKPNQNMLNSIISAFNLDRSKCCMVGDRLNTDMKFGVEGGLGGTLLVLSGIETEERALKISHDYPRPKFYIDKLGDIYTLTNNEL | not soluble
MTCDDLKSGEKRLIPKPTCRFKDAFQQYPDLLKSIIRVGILKPTPIQSQAWPIILQGIDLIVVAQTGTGKTLSYLMPGFIHLDSQPISREQRNGPGMLVLTPTRELALHVEAECSKYSYKGLKSICIYGGRNRNGQIEDISKGVDIIIATPGRLNDLQMNNSVNLRSITYLVIDEADKMLDMEFEPQIRKILLDVRPDRQTVMTSATWPDTVRQLALSYLKDPMIVYV | soluble
GRPYKLLNGIKLGVYIPQEWHDRLMEIAKEKNLTLSDVCRLAIKEYLDNHDKQKK | soluble
